Source: publication PMC7954794, “Protein context shapes the specificity of SH3 domain-mediated interactions in vivo” (Nature Communications, 2021)

B1: S. cerevisiae Abp1 (full length; SH3 domain 535-592 mutated) / Hua2 (parent)
chain 1: MALEPIDYTTHSREIDAEYLKIVRGSDPDTTWLIISPNAKKEYEPESTGSSFHDFLQLFDETKVQYGLARVSPPGSDVEKIIIIGWCPDSAPLKTRASFAANFAAVANNLFKGYHVQVTARDEDDLDENELLMKISNAAGARYSIQTSSKQQGKASTPPVKKSFTPSKSPAPVSKKEPVKTPSPAPAAKISSRVNDNNDDDDWNEPELKERDFDQAPLKPNQSSYKPIGKIDLQKVIAEEKAKEDPRLVQKPTAAGSKIDPSSDIANLKNESKLKRDSEFNSFLGTTKPPSMTESSLKNDDDKVIKGFRNEKSPAQLWAERKAKQNSGNAETKAEAPKPEVPEDEPEGEPDVKDLKSKFEGLAASEKEEEEMENKFAPPPKKSEPTIISPKPFSKPQEPVKAEEAEQPKTDYKKIGNPLPGMHIEADNEEEPEENDDDWDDDEDEAAQPPLPSRNVASGAPVQKEEPEQEEIAPSLPSRNSIPAPKQEEAPEQAPEEEIEEEAEEAAPQLPSRSSAAPPPPPRRATPEKKPKENPWATAEYDYDAAEDNELTFVENDKIINIEFVDDDWWLGELEKDGSKGLFPSNYVSLGN
chain 2: MQQTKFGKMYLDHDSVVEYSEDEIVEADRITLGYKKRLSMIENQMRHLLEDFSLDVQQIEPILADLQKYYDAFLQLLQKRNKSLQCKRSTHQPVPSPMNSQTSTNAKVNLSGKLMKFQLNSVQKFDEENILRILQNKIEFEHYFQIDKGKKQKVLLLAVYQCLNGPTRLHKVLNIEGIIHNNSIRTILGKQVSSSKWTVFLYDVKLVLLAHRQDVPNLETSKMIVRYGDLFPCALYFKDHTAY

Variants of: B1
Assay: DHFR protein-fragment complementation in yeast (Abp1-DHFR F[1,2] x partner-DHFR F[3]), deep mutational scanning, second methotrexate selection vs reference
Details: with Hua2; S. cerevisiae, DHFR-PCA selection in liquid with methotrexate at 30 C, two 72 h selections (the score uses the second); reference = the pre-selection culture; not an affinity; scale: DMS score: mean over two replicates of log2(f_test/f_ref + 0.5)/ln 2, minus the synonymous-codon median

Row | screen value | Variant
1 | -2.52 | chain 1 L551R
2 | -2.85 | chain 1 L551T
3 | -2.48 | chain 1 W570G
4 | -2.68 | chain 1 W570N
5 | -1.57 | chain 1 W570C
6 | -2.78 | chain 1 G572R
7 | -2.36 | chain 1 G572E
8 | -1.08 | chain 1 L574H
9 | -1.23 | chain 1 L574S
10 | -2.3 | chain 1 Y541T
11 | -2.42 | chain 1 Y541I
12 | -2.2 | chain 1 E547C
13 | -2.81 | chain 1 E547G
14 | -2.59 | chain 1 G581V
15 | -2.84 | chain 1 G581A
16 | -2.96 | chain 1 G581R
17 | -2.77 | chain 1 G581S
18 | -2.84 | chain 1 A545F
19 | -1.96 | chain 1 A545V
20 | -1.06 | chain 1 K576V
21 | -1.83 | chain 1 K576L
22 | -2.76 | chain 1 E550V
23 | -2.84 | chain 1 E550G

Row | screen value | Variant
24 | -2.5 | chain 1 N586F
25 | -2.65 | chain 1 T538D
26 | -1.21 | chain 1 G578E
27 | -2.3 | chain 1 G578T
28 | -2.83 | chain 1 G578V
29 | -2.12 | chain 1 G578F
30 | -1.66 | chain 1 G578C
31 | -1.84 | chain 1 E555W
32 | -1.49 | chain 1 W569C
33 | -2.35 | chain 1 W569R
34 | -2.94 | chain 1 W569E
35 | -2.32 | chain 1 L582N
36 | -2.82 | chain 1 L582C
37 | -2 | chain 1 L582V
38 | -1.37 | chain 1 V565G
39 | -1.99 | chain 1 T552I
40 | -2.72 | chain 1 T552V
41 | -2.31 | chain 1 F583V
42 | -1.41 | chain 1 S579G
43 | -1.48 | chain 1 S579A
44 | -2.55 | chain 1 S579F
45 | -2.71 | chain 1 S579Y

Further lines, the variant ahead of its results:

Row | Variant | screen value
46 | chain 1 L551Q | -2.06
47 | chain 1 L551F | -2.93
48 | chain 1 L551V | -1.51
49 | chain 1 L551E | -2.9
50 | chain 1 L551P | -1.38
51 | chain 1 I560G | -2.38
52 | chain 1 I560W | -2.4
53 | chain 1 I560D | -2.15
54 | chain 1 I560A | -1.35
55 | chain 1 W570Y | -2.31
56 | chain 1 W570R | -2.58
57 | chain 1 W570F | -2.79
58 | chain 1 W570S | -2.8
59 | chain 1 W570L | -2.25
60 | chain 1 G572W | -2.24
61 | chain 1 G572V | -2.77
62 | chain 1 L574G | -2.91
63 | chain 1 L574A | -1.53
64 | chain 1 L574Q | -1.79
65 | chain 1 L574P | -2.01
66 | chain 1 Y541G | -1.86
67 | chain 1 E547V | -2.1

Row | Variant | screen value
68 | chain 1 E547I | -2.45
69 | chain 1 E547A | -2.3
70 | chain 1 E547M | -1.68
71 | chain 1 E547W | -2.89
72 | chain 1 E547F | -1.69
73 | chain 1 G581C | -2.66
74 | chain 1 G581D | -2.22
75 | chain 1 A545Y | -2.53
76 | chain 1 A545P | -1.42
77 | chain 1 A545H | -1.96
78 | chain 1 A545L | -2.7
79 | chain 1 A545D | -1.35
80 | chain 1 A545W | -2.91
81 | chain 1 A545M | -1.83
82 | chain 1 K576Y | -1.6
83 | chain 1 K576M | -1.51
84 | chain 1 K576W | -2.17
85 | chain 1 K576F | -2.16
86 | chain 1 K576D | -1.75
87 | chain 1 K576I | -1.18
88 | chain 1 K576P | -2.88
89 | chain 1 E550K | -2.04

Row | Variant | screen value
90 | chain 1 E550D | -1.79
91 | chain 1 E550A | -2.77
92 | chain 1 N586W | -2.53
93 | chain 1 N586Y | -2.41
94 | chain 1 T538W | -1.19
95 | chain 1 T538P | -1.88
96 | chain 1 T538G | -2.9
97 | chain 1 G578D | -1.53
98 | chain 1 G578L | -2.28
99 | chain 1 G578Y | -2.41
100 | chain 1 W569V | -2.92
101 | chain 1 W569G | -2.06
102 | chain 1 W569L | -2.34
103 | chain 1 D548Y | -1.22
104 | chain 1 L582P | -2.04
105 | chain 1 L582S | -2.57
106 | chain 1 L582H | -1.2
107 | chain 1 L582Q | -2.88
108 | chain 1 V565I | -1.06
109 | chain 1 V565E | -2.08
110 | chain 1 V565F | -1.5
111 | chain 1 S585E | -2.07

Row | Variant | screen value
112 | chain 1 S585I | -1.59
113 | chain 1 T552F | -2.87
114 | chain 1 T552Q | -1.13
115 | chain 1 T552P | -2.02
116 | chain 1 T552C | -1.73
117 | chain 1 T552M | -2.22
118 | chain 1 T552E | -1.32
119 | chain 1 T552Y | -2.8
120 | chain 1 F583S | -2.62
121 | chain 1 F583L | -1.78
122 | chain 1 F583C | -2.31
123 | chain 1 F583I | -1.72
124 | chain 1 F583Y | -1.68
125 | chain 1 D567Y | -1.92
126 | chain 1 S579P | -2.21
127 | chain 1 S579D | -1.27
128 | chain 1 S579I | -1.27
129 | chain 1 S579W | -2.9
130 | chain 1 A539T | -1.45
131 | chain 1 K558W | -2.78
132 | chain 1 K558D | -2.59
133 | chain 1 K558N | -1.29

Same assay, conditions: with Hua2; S. cerevisiae, DHFR-PCA selection in liquid with methotrexate at 30 C, two 72 h selections (the score uses the second); reference = the pre-selection culture; not an affinity; value at the no-binding floor (a bound); scale: DMS score: mean over two replicates of log2(f_test/f_ref + 0.5)/ln 2, minus the synonymous-codon median

Row | screen value | Variant
134 | < -3.06 | chain 1 E550P
135 | -3.03 | chain 1 E550T
136 | < -3.06 | chain 1 E550N
137 | < -3.06 | chain 1 E550M
138 | < -3.06 | chain 1 A537H
139 | < -3.06 | chain 1 A537M
140 | < -3.06 | chain 1 A537W
141 | -2.99 | chain 1 D567F
142 | < -3.06 | chain 1 A539K
143 | < -3.06 | chain 1 A539Y
144 | -3.03 | chain 1 A539Q
145 | < -3.06 | chain 1 A539L
146 | < -3.06 | chain 1 A539M
147 | -3.02 | chain 1 A539R

More lines, now with the values behind:

Row | Variant | screen value
148 | chain 1 E547P | < -3.06
149 | chain 1 E550S | < -3.06
150 | chain 1 E550C | < -3.06
151 | chain 1 E550R | -3
152 | chain 1 E550L | < -3.06
153 | chain 1 E550W | < -3.06
154 | chain 1 A537Y | < -3.06
155 | chain 1 A537N | < -3.06
156 | chain 1 A537R | -3.04
157 | chain 1 A537L | -3.02
158 | chain 1 A537E | -3.04
159 | chain 1 A537Q | < -3.06
160 | chain 1 A537I | -3.01
161 | chain 1 D567L | < -3.06
162 | chain 1 D567W | < -3.06
163 | chain 1 A539I | -3.01
164 | chain 1 A539W | -3.01
165 | chain 1 A539D | -3
166 | chain 1 A539N | < -3.06
167 | chain 1 A539F | < -3.06
